Reference: patent US20150160214A1, “Quantitation of Cellular Adhesion Dynamics Across Immobilized Receptors Under Rheological Shear Flow” (Mayo Foundation for Medical Education and Research, priority 2013, published 2015)

Key:
[1] = Conformational and thermodynamic classification of A1 domain variants (urea and thermal denaturation, CD, FL, ANS); assay type: physicochemical; details: for Thermodynamic stability: urea and thermal denaturation
Procedure: Circular dichroism measurements were performed on a Model No. 420C circular-dichroism spectrometer (Aviv Biomedical, Inc., Lakewood Township, N.J.). All fluorescence (FL) measurements were performed on a Fluorolog3 spectrofluorometer (HORIBA Jobin-Yvon, Edison, N.J.) equipped with a Model No. LF1-3751 temperature controller (Wavelength Electronics Inc., Bozeman, Mont.). Near- and far-ultraviolet (UV) circular dichroism (CD), intrinsic protein FL, and ANS (8-anilino naphthalene sulfonic acid) […] spectra were determined as described in Tischer et al. (19). Urea denaturation (monitored by far-UV CD) and thermal denaturation (monitored by far-UV CD, intrinsic protein FL, and ANS FL) were performed and analyzed as previously described (19,20). Acrylamide quenching of intrinsic tryptophan fluorescence was performed and analyzed as described in Tischer et al. (19). All spectra were collected at 20° C.
The effects of mutations on the thermodynamic stability of A1 (18) was determined and a framework that incorporated partial unfolding as a means for enhancing the binding affinity of A1 for GPIba was developed (17). Initially, urea-temperature phase diagram method were used for assessing the reversible thermodynamics of unfolding at various temperatures (18,21), and more recently thermal denaturations were used to assess kinetic irreversibility (20,22). The inventor employed these methods using a variety of spectroscopic observables that assess the conformation of these A1 domain variants as a function of temperature and urea.
The observables included the following: (1) Far-UV CD to assess secondary structure content; (2) Near-UV CD to assess tertiary structure content; (3) Intrinsic protein FL to assess solvent exposure of tyrosine and tryptophan residues; (4) Acrylamide quenching of tryptophan FL to assess local solvent exposure of the single tryptophan residue; and (5) Binding of the molten globule indicator-dye, ANS, to assess exposure of hydrophobic surface area.
In total, these studies have provided metrics that are able to classify the conformation of A1 into three types, based on biophysical spectroscopy, as follows:
The type 2B mutations R1306Q and I1309V and the type 2M mutation G1324S have previously been characterized in this conformational class (18). In addition, R1308L and I1372S also belong to this class.
The type 2M mutation A1437T and the type 2B mutation R1341Q belong to this class.
The type 2M mutations F1369I, E1359K, I1425F, S1285F, and R1374H, and the type 2B mutations H1268D, P1337L, V1316M, and V1314D, belong to this class.

[2] = target: T1, platelet GPIbα (Homo sapiens, UniProt P07359); assay: Platelet pause times on surface-captured A1 domain variants, parallel plate flow chamber (Table 4, Example 3); assay type: cell-based; design: key to Pause Time 1500 s^−1 (s): NB = “No Binding.”; details: for Platelet binding to surface-captured A1 domain variant: any shear rate; for Pause Time 1500 s^−1 (s): shear rate 1500 s^−1, mean ± std. dev., number of measurements in parentheses, NB = No Binding
T1 construct: endogenous in cells; host or cells: platelets in citrated whole blood of normal healthy volunteer donors
Procedure: The determination and analysis of platelet pause times and instantaneous translocation velocities over surface captured A1 and RCAM A1 was performed as previously described (Tischer:2013). Here, the inventor used the Cellix Mims Evo syringe pump controlled by VenaFluxAssay (www.cellixltd.com). Vena8™ CGS biochips were custom designed with 800 μm width by 80 μm height microchannels bonded to glass slides with a Cu^2+ chelated PEG surface serviced by Microsurfaces Inc. (www.proteinslides.com/histag.html) to which the A1 and RCAM A1 in TBS were captured by the 6×His-Tag at a total concentration of 5 μM. Citrated whole blood was obtained from the informed consent of healthy volunteer donors with approval from the Mayo Clinic Institutional Review Board and 100 μL was perfused over the surface captured A1 domains at 700 s^−1. The shear was increased or decreased in a stepwise manner to measure the dynamics of platelet adhesion at high and low shear. After allowing the flow chamber to equilibrate for 50 s at each shear rate, 1 min movies were recorded at 24 frames per second in phase contrast at 200× magnification with 2×2 pixel binning on a Zeiss AxioCam Mrm camera (6.45 μm/px) attached to a Zeiss Axio Observer.D1 inverted microscope. Tracking analysis was performed using MediaCybernetics ImagePro® Premier (www.mediacy.com/index.aspx?page=IP\_Premier) The distance travelled in the direction of flow was calculated from the coordinate data for each platelet as a function of time using √{square root over ((xt−x0)^2)}, where x0 is the coordinates of a platelet on the first frame of the movie and xt is the coordinate on subsequent frames of the movie. These trajectories were differentiated into instantaneous velocities using a Savitzky-Golay algorithm (Savitzky:1964) with a five data point window size and a second order polynomial implemented into a Mathematica (www.wolfram.com/mathematica) notebook written in our lab. Trajectories were retained for statistical analysis if the platelet was present for ≧1 s and travelled a total distance greater than 1 Distance travelled in pixels (px) was converted to (μm) using 6.45 μm/px*2/200=0.0645 μm/px. Pause times were determined by the amount of time (sec) a platelets velocity was 0±4 px/s≅0±0.23 μm/s, within the noise. Data are reported as mean velocities and pause times attained by individual platelets averaged over all platelets analyzed. Integral analysis of the cumulative pause time histogram gives the survival fraction, equation (24).
The rheological interaction of platelets with A1 domain variants harboring type 2M and type 2B mutations was studied using recently developed flow-chamber methods (19). The A1 domains ([…]) were immobilized on Vena8™ biochips (Cellix, Dublin, Ireland) coated with a Cu^2+-chelated poly-ethylene-glycol surface serviced by MicroSurfaces, Inc. (Englewood, N.J.) via the 6×His-Tag, enabling the preservation of the structural properties of the domain in solution and its concomitant effects on platelet adhesion under rheological shear flow. One-hundred microliters of citrated whole blood, obtained from the informed consent of normal healthy volunteer donors with approval from the Mayo Clinic Institutional Review Board (Rochester, Minn.), was perfused at a shear rate of 800 s^−1 followed by Tris-buffered saline. Platelets translocating on the surface-captured domains were filmed at 24 frames/s for 1 min at logarithmic intervals of the shear rate. Coordinates obtained from tracking analysis of the resulting movies were processed using the inventor recently developed statistical analytics for the quantification of cellular adhesion dynamics across immobilized receptors under rheological shear flow (supra). Biochips lacking the surface-captured A1 domain were completely inert to platelets.

Substance	Platelet adhesion function (gain or loss of function) [2]	Platelet binding to surface-captured A1 domain variant [2]	Pause Time 1500 s^−1 (s) [2]	A1 domain Conformation [1]	Conformational class (in words) [1]	Thermodynamic stability [1]
H1308L: vWF A1 domain variant with type 2B vWD mutation, printed H1308L in Table 4, R1308L elsewhere				N (N = “Native” (native structure with varying thermodynamic stability))	global native fold	
H1268D: vWF A1 domain variant with type 2B vWD mutation H1268D					significantly reduced tertiary structure content	
I1309V: vWF A1 domain variant with type 2B vWD mutation I1309V				N (N = “Native” (native structure with varying thermodynamic stability))	global native fold	
R1306Q: vWF A1 domain variant with type 2B vWD mutation R1306Q				N (N = “Native” (native structure with varying thermodynamic stability))	global native fold	
P1337L: vWF A1 domain variant with type 2B vWD mutation P1337L	extreme type 2B gain-of-function				significantly reduced tertiary structure content	
I1372S: vWF A1 domain variant with type 2B vWD mutation I1372S				N (N = “Native” (native structure with varying thermodynamic stability))	global native fold	
V1316M: vWF A1 domain variant with type 2B vWD mutation V1316M					significantly reduced tertiary structure content	
R1341Q: vWF A1 domain variant with type 2B vWD mutation R1341Q					reduced secondary structure content	low stability
V1314D: vWF A1 domain variant with type 2B vWD mutation V1314D					significantly reduced tertiary structure content	

Further lines, with some results ahead:

Platelet adhesion function (gain or loss of function) [2]	Platelet binding to surface-captured A1 domain variant [2]	Pause Time 1500 s^−1 (s) [2]	Substance	A1 domain Conformation [1]	Conformational class (in words) [1]	Thermodynamic stability [1]
complete loss-of-function	did not bind platelets at any shear rate	NB (2)	E1359K: vWF A1 domain variant with type 2M vWD mutation E1359K		significantly reduced tertiary structure content	
mild loss-of-function			A1437T: vWF A1 domain variant with type 2M vWD mutation A1437T		reduced secondary structure content	low stability
	did not bind platelets at any shear rate	NB (2)	S1285F: vWF A1 domain variant with type 2M vWD mutation S1285F		significantly reduced tertiary structure content	
	did not bind platelets at any shear rate	NB (2)	R1374H: vWF A1 domain variant with type 2M vWD mutation R1374H		significantly reduced tertiary structure content	
		NB (3)	G1324S: vWF A1 domain variant with type 2M vWD mutation G1324S	N (N = “Native” (native structure with varying thermodynamic stability))	global native fold	
	did not bind platelets at any shear rate	NB (2)	I1425F: vWF A1 domain variant with type 2M vWD mutation I1425F		significantly reduced tertiary structure content	
complete loss-of-function	did not bind platelets at any shear rate	NB (2)	F1369I: vWF A1 domain variant with type 2M vWD mutation F1369I		significantly reduced tertiary structure content	
